Reference: patent EP4435012A1 (Juventus Cell Therapy Ltd., dated 2024)

T1: BCMA on MM.1S cells (human multiple myeloma cells that endogenously express BCMA) (human, UniProt Q02223 1-184)
T1 sequence (looked up): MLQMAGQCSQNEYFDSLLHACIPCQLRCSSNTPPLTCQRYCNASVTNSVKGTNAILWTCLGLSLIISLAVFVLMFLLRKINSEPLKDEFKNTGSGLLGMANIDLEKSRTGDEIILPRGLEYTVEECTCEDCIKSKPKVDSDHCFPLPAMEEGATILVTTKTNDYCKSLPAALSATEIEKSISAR

B1: BY-01G CAR (on BCMA CAR-T cell BY-01G) (other)
chain: EIVMTQSPSTLSASVGDRVIITCQASENIYRNLAWYQQKPGKAPKLLIYAASLLASGVPSRFSGSGSGAEFTLTISSLQPDDFATYYCQNAFYSSSADNPFGQGTKLTVLGGGGSGGGGSGGGGSEVQLVESGGGLVQPGGSLRLSCTASGFSLSSYAMSWVRQAPGKGLEWIGMISSSGSTHYASWAKGRFTISRDTSKNTVYLQMNSLRAEDTAVYYCARDFYVYSSGTYLEYGMDLWGQGTLVTVSSTTTPAPRPPTPAPTIASQPLSLRPEACRPAAGGAVHTRGLDFACDIYIWAPLAGTCGVLLLSLVITLYCKRGRKKLLYIFKQPFMRPVQTTQEEDGCSCRFPEEEEGGCELRVKFSRSADAPAYQQGQNQLYNELNLGRREEYDVLDKRRGRDPEMGGKPRRKNPQEGLYNELQKDKMAEAYSEIGMKGERRRGKGHDGLYQGLSTATKDTYDALHMQALPPR
B2: BY-04G CAR (on BCMA CAR-T cell BY-04G) (other)
chain: EIVMTQSPSTLSASVGDRVIINCQASQSVFSNNYLAWYQQKPGKAPKLLIYRASNLASGVPSRFSGSGSGAEFTLTISSLQPDDFATYYCQPTYLSGDWYVAFGQGTKLTVLGGGGSGGGGSGGGGSEVQLVESGGGLVQPGGSLRLSCTASGFSLNYYGMGWVRQAPGKGLEWIGIIAGDRDTYYATWAKGRFTISRDNSKNTVYLQMNSLRAEDTAVYFCARGSYSSTWDGAFDLWGPGTLVTVSSTTTPAPRPPTPAPTIASQPLSLRPEACRPAAGGAVHTRGLDFACDIYIWAPLAGTCGVLLLSLVITLYCKRGRKKLLYIFKQPFMRPVQTTQEEDGCSCRFPEEEEGGCELRVKFSRSADAPAYQQGQNQLYNELNLGRREEYDVLDKRRGRDPEMGGKPRRKNPQEGLYNELQKDKMAEAYSEIGMKGERRRGKGHDGLYQGLSTATKDTYDALHMQALPPR

Biological target: T1, BCMA on MM.1S cells (human multiple …)
Experiment: cell-based or functional assay

Binder | killing of target cell (luciferase activity in target cell, effector/target 1:4, 48 hours)
B1 | 100%
B2 | 100%
